The target of assay [1] is Y1R-eYFP (wild-type Y1R) (human) (UniProt P25929).
Assay [2] has the same target. The source holds these as a separate data set.

Sequence of Y1R-eYFP (wild-type Y1R) (human) (P25929 whole entry): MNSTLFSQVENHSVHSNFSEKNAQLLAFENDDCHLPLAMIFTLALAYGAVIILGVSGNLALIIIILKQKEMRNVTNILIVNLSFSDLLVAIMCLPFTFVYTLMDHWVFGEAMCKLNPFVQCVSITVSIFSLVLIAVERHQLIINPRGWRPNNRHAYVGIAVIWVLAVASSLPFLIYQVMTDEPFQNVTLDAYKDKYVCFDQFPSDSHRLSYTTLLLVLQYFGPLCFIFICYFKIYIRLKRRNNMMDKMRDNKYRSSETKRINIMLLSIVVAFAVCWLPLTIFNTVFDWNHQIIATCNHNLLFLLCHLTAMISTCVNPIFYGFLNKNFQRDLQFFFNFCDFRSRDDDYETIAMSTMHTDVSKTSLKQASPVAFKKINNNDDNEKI

As for ARYYSALRHYINLITRQRY [NPY(18–36)], in assay [1], the signalling assay (Ca2+), decrease in potency compared to full-length NPY was 300 fold.
In assay [2], APLEPVYPGDNATPEQMAQYAADLRRYINMLTRPRY [pancreatic polypeptide (PP)] came in with a signalling assay, increase of EC50 compared to NPY of 64 fold.

The values are drawn from article PMC8844075, “Structural basis of neuropeptide Y signaling through Y1 receptor” (Nature Communications, 2022).
